Experimental data taken from patent publication US20060294618A1 (CORNELL RESEARCH FOUNDATION, published 2006).

T1: TEV-HAT VPg, yeast two-hybrid bait fusion protein expressed from pEG202 (Tobacco etch virus, strain HAT, UniProt P0A7C2 1-202; P04517 1850-2037)
T1 sequence (looked up): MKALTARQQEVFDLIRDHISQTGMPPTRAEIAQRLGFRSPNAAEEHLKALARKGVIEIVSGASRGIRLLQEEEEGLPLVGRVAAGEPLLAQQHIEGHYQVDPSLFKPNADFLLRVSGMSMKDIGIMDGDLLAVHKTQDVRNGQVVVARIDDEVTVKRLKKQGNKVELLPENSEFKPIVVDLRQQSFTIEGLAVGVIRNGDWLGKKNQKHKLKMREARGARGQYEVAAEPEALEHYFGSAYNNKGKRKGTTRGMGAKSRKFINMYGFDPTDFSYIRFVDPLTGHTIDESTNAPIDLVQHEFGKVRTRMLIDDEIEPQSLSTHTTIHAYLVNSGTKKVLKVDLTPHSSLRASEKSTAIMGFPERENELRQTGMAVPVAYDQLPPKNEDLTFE

T2: GST-VPgHAT (Tobacco etch virus, strain HAT, UniProt P04517 1850-2037)
T2 construct: Immobilized on glutathione-Sepharose 4B beads; also called TEV-HAT VPg (GST fusion); not shown: glutathione S-transferase (GST)
T2 sequence (looked up): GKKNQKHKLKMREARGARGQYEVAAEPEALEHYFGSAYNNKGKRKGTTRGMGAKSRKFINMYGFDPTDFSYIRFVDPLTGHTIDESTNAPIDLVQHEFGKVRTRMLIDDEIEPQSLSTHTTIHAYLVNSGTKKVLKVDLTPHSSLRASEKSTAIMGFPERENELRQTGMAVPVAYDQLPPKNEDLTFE


Columns and labels:
[1] = target: T1, TEV-HAT VPg, yeast two-hybrid bait …; assay: yeast two-hybrid, beta-galactosidase assay
From the text: Bait plasmid pEG202 was used to express the fusion protein TEV-HAT VPg. The prey plasmid pJG4-5 was used to express pepper eIF4E. pEG202: Pto and PJG4-5:AvrPto were served as a positive control.

GST-VPgHAT = target: T2, GST-VPgHAT; assay: GST pull-down, 35S-labeled in vitro-translated eIF4E
Method: The input protein panel represents equivalent amounts of GST, GST-VPgHAT, and GST-VPgNW used in the pull-downs assay and 20% of in vitro-translated eIF4Es.
GST, GST-VPgHAT, and GST-VPgNW proteins were bound to 10 μl GST-Sepharose beads and resuspended in 195 μl IPAB-gelatin buffer (20 mM HEPES pH7.8, 150 mM KCl, 0.1% gelatin, 0.1% Triton X-100, 0.1% NP-40, 5 mM MgCl₂, 2 mM DTT). TnT translation products (5 μl) were added to prepared GST fusion Sepharose, mixed by end-over rotation at 4° C. for overnight, and washed 3× with 1×PBS buffer containing 2 mM DTT. The Sepharose beads were resuspended in 20 μl SDS-PAGE loading buffer and incubated for 2 min at 100° C. Released proteins were separated by SDS-PAGE. Following electrophoresis, gels were fixed, dried, and exposed to a phosphorimaging screen.

Row | Binder | binding result [1] | binding result (GST-VPgHAT)
1 | eIF4E-234 mutant translation initiation factor eIF4E (Capsicum chinense PI 159234, pvr1 allele), yeast two-hybrid prey fusion expressed from pJG4-5 (other, not shown: fusion partner encoded by prey plasmid pJG4-5) MATAEMEKTTTFDEAEKVKLNANEADDEVEEGEIVEETDDTTSYLSKEIAAKHPLEHSWTFWFDNTVAKSRQAAWGSSLRNVYTFSTVEDFWGAYNNIHHPSKLVVRADLHCFKHKIEPKWEDPVCANGGTWKMSFSKGKSDTSWLYTLLAMIGHQFDHEDEICGAVVSVRGKGEKISLWTKNAANETAQVSIGKQWKQFLDYSDSVGFIFHDDAKRLDRNAKNRYTV | no binding | –
2 | eIF4E-234 (pvr1), 35S-labeled, translated in vitro from pET16b (other, 35S-labeled (in vitro translation in reticulocyte lysate), also called resistant allele) MATAEMEKTTTFDEAEKVKLNANEADDEVEEGEIVEETDDTTSYLSKEIAAKHPLEHSWTFWFDNTVAKSRQAAWGSSLRNVYTFSTVEDFWGAYNNIHHPSKLVVRADLHCFKHKIEPKWEDPVCANGGTWKMSFSKGKSDTSWLYTLLAMIGHQFDHEDEICGAVVSVRGKGEKISLWTKNAANETAQVSIGKQWKQFLDYSDSVGFIFHDDAKRLDRNAKNRYTV | – | no binding
3 | eIF4E-DEMP (pvr2^2 / pvr1^2), 35S-labeled, translated in vitro from pET16b (other, 35S-labeled (in vitro translation in reticulocyte lysate), also called DEMP (pvr1^2); resistant allele) MATAEMEKTTTFDEAEKVKLNANEADDEVEEGEIVEETDDTTSYLSKEIATKHPLEHSWTFWFDNPEAKSKQAAWGSSRRNVYTFSTVEDFWGAYNNIHHPSKLVVGANLHCFKHKIEPKWEDPVCANGGTWKMSFSKGKSDTSWLYTLLAMIGHQFDHEDEICGAVVSVRGKGEKISLWTKNAANETAQVSIGKQWKQFLDYSDSVGFIFHDDAKRLDRNAKNRYTV | – | no binding
4 | eIF4E-YY (pvr2^1 / pvr1^1), 35S-labeled, translated in vitro from pET16b (other, 35S-labeled (in vitro translation in reticulocyte lysate), also called YY (pvr1^1); resistant allele) MATAEMEKTTTFDEAEKVKLNANEADDEVEEGEIVEETDDTTSYLSKEIATKHPLEHSWTFWFDNPEAKSKQAAWGSSRRNVYTFSTVEDFWGAYNNIHHPSKLVVGADLHCFKHKIEPKWEDPVCANGGTWKMSFSKGKSDTSWLYTLLAMIGHQFDHEDEICGAVVSVRGKGEKISLWTKNAANETAQVSIGKQWKQFLDYSDSVGFIFHDDAKRLDRNAKNRYTV | – | no binding
